The numbers were not newly measured in PMC5000552, which cites them from elsewhere.

The series has as its target BCL6 (Homo sapiens) (UniProt P41182).

Chain of BCOR (Q6W2J9 whole entry): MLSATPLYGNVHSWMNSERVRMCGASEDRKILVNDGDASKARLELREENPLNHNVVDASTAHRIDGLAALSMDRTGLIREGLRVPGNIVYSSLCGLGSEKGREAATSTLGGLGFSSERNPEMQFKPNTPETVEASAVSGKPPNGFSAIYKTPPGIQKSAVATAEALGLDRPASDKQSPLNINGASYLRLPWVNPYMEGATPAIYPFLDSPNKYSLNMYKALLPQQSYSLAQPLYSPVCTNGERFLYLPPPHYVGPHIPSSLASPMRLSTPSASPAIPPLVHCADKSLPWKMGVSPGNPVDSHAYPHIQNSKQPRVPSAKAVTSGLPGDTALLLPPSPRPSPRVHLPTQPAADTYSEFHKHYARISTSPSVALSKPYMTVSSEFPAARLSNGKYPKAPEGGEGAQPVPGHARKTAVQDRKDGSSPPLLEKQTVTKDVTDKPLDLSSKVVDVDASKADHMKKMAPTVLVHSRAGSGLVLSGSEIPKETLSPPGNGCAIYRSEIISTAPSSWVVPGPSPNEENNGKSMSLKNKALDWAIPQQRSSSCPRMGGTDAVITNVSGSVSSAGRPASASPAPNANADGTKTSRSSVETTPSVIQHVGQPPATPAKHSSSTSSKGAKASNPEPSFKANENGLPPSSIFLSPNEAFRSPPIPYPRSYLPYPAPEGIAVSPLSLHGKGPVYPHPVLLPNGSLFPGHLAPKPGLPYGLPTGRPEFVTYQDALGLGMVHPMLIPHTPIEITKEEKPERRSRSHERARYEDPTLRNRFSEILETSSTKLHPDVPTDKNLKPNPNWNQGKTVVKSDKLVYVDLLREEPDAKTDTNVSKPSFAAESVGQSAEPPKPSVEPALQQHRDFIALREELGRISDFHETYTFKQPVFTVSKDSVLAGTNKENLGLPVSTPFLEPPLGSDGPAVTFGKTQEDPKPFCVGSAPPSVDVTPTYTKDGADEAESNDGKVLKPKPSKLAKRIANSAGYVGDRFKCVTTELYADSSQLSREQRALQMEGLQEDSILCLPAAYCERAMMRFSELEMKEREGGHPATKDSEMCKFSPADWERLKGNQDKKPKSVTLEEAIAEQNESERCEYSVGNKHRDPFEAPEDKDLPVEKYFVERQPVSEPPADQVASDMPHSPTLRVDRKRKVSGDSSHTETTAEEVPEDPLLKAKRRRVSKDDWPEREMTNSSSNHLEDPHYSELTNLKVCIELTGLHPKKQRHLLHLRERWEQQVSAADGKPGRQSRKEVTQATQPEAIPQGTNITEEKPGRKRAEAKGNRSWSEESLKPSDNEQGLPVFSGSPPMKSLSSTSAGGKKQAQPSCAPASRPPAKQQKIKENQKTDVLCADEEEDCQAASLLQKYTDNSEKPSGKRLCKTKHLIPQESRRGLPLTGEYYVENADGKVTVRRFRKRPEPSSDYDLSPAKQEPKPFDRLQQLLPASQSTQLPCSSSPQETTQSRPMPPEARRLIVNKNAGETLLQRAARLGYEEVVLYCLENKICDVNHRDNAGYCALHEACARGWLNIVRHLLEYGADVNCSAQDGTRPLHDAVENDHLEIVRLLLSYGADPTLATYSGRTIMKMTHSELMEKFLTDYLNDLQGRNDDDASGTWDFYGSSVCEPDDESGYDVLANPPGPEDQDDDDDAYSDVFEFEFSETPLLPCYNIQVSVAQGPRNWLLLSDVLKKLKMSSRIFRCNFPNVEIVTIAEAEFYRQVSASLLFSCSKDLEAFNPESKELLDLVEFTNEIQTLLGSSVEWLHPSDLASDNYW

As for BCOR (from UniProt Q6W2J9), the Kd is 20 µM.

One may read the Kd as the equilibrium constant for the complex coming apart.
